One assay deals with T1, profilin IIL (Homo sapiens, UniProt P35080).
T1 construct: expressed in transfected cells; host or cells: Saccharomyces cerevisiae Y190
T1 sequence (P35080 1-140): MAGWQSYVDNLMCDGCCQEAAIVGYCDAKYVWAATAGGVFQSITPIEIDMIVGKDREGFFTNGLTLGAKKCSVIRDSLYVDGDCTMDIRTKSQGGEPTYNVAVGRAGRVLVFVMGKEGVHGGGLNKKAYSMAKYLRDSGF
The assay is described as follows: Yeast two-hybrid HIS3 growth test, MD36 and profilin family. Conditions: S. cerevisiae Y190; 40 mM 3-amino-1,2,4-triazole. The assay is classed as cell-based. On the procedure:
Using as a template human skeletal muscle-derived cDNA and as an enzyme Pfu polymerase (STRATAGENE), the reaction was carried out at 95° C. for 30 seconds, at 65° C. for 45 seconds and at 72° C. for 60 seconds, for 35 cycles. As a result of PCR, the DNA fragment of 745 bp was found, in addition to the DNA fragment of 423 bp or profilin II, and named profilin IIL. The base sequence for cDNA of profilin IIL is shown by SEQ ID NO:29, and the amino acid sequence of profilin II is shown by SEQ ID NO:28.
The protein-protein interaction between MD36 and the profilin family was detected by the yeast two-hybrid system. Based on pGBT9 (CLONTECH), expression plasmids were constructed to express the coding regions of profiling I (Evangelista et al., Science, 276, 118–122, 1997; Imamura et al., EMBO J., 16, 2745–2755, 1997; Tanaka, Biochem. Biophys. Res. Commun., 267, 479–481, 2000), profilin II (Schluter et al., Biohim. Biophys. Acta, 1359, 97–109, 1997), and profiling IIL in the form fused to yeast GAL4-DNA-binding domain protein under control of yeast ADH1 promoter. These plasmids were named pG-PFNI, pG-PFNII and pG-PFNIII, respectively (yeast selection marker was TRP1). […]

For the next assay, the target named is T2, profilin II (Homo sapiens, UniProt P35080).
T2 construct: expressed in transfected cells; host or cells: Saccharomyces cerevisiae Y190
T2 sequence (P35080 1-140 isoform P35080-2): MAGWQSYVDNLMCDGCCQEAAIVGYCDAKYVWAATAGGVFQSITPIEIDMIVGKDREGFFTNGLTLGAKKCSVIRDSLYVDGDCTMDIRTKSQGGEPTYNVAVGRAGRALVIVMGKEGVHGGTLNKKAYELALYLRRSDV
The description is as above. It counts as cell-based. To be noted: S. cerevisiae Y190; 40 mM 3-amino-1,2,4-triazole. The text has this: The protein-protein interaction between MD36 and the profilin family was detected by the yeast two-hybrid system. Based on pGBT9 (CLONTECH), expression plasmids were constructed to express the coding regions of profiling I (Evangelista et al., Science, 276, 118–122, 1997; Imamura et al., EMBO J., 16, 2745–2755, 1997; Tanaka, Biochem. Biophys. Res. Commun., 267, 479–481, 2000), profilin II (Schluter et al., Biohim. Biophys. Acta, 1359, 97–109, 1997), and profiling IIL in the form fused to yeast GAL4-DNA-binding domain protein under control of yeast ADH1 promoter. These plasmids were named pG-PFNI, pG-PFNII and pG-PFNIII, respectively (yeast selection marker was TRP1). On the other hand, expression plasmids that express the full-length sequence (SEQ ID NO:1) of MD36, which is IRAP-BP protein, or the coding region from this N-terminus to the sequence (SEQ ID NO:33) including the proline-rich domain in the form fused to yeast […] activated domain protein under control of yeast ADH1 promoter was constructed based on pACT2 (CLONTECH), and named pACT-MD36 and pACT-MD36NT, respectively (yeast selection marker was LEU2). pG-PFNI, pG-PFNII, pG-PFNIII or, pGBT9 for control was co-transfected to yeast Saccharomyces cerevisiae Y190 together with pACT-MD36 or pACT-MD36NT, and yeast strains bearing plasmids from the two were selected on SD medium free of tryptophan and leucine. S. cerevisiae Y190 is originally a histidine auxotrophic strain but when the introduced proteins on the plasmids show the interactions, reporter gene HIS3 is expressed and the strain becomes capable of growing on a histidine-free plate. The yeast strain acquired was spread on tryptophan, leucine and histidine-free SD medium supplemented with 40 mM 3-amino-1,2,4-triazole.

For a further assay, the target named is T3, IRAP-His (Rattus norvegicus, UniProt P97629).
T3 construct: to construct plasmid pET21-IRAP (1–109); made in house
T3 sequence (P97629 1-109): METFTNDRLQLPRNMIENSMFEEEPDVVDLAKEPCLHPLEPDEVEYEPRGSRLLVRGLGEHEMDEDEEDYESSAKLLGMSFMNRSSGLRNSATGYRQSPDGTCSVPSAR
Nature of the assay: Biochemical binding test of human MD36 (EIA plate, anti-Penta-His detection). To be noted: IRAP-His 1.0 μg/ml and anti-Penta-His antibody both added to human MD36-coated wells. The text has this:
The C terminal part (partial peptide encoded by the partial base sequence of 2995–3674 from the 5′ end in SEQ ID NO:2) of SEQ ID NO:1 (full-length cDNA of MD36) was used as human MD36. This DNA fragment was inserted into pGEX expression vector (Amersham Pharmacia) to construct expression plasmid pGEX-MD36N4 capable of expressing the human MD36 partial protein in the form fused to GST (glutathione S-transferase) protein (GST-MD36N4 protein) under control of tac promoter. However, the protease recognition site in these junctions was removed by applying PCR. Using pGEX-MD36N4, E. coli BL21 was transformed and the transformants were cultured in LB medium in a conventional manner while inducing expression by IPTG. After culture, the cells collected were disrupted by sonication followed by centrifugation of the cell homogenate. As a result, most of the GST-MD36N4 protein were present in the insoluble fraction. […]
Protein-protein binding test was carried out by the procedure shown below. […] After the wells were again rinsed 3 times with TBS-T, the IRAP-His protein remained in the wells was quantitatively assayed using anti-Penta-His antibody (Qiagen, Inc.). […] IRAP-His (1.0 μg/ml) or anti-Penta-His antibody (diluted to 2000 fold) and both were added to the GST-MD364N-coated or uncoated wells, and after washing with TBS-T, the amount of His-Tag remained in the wells was quantified. […]

B1: MD36: human skeletal muscle-derived IRAP binding protein, SEQ ID NO:1; C-terminal part (bases 2995–3674) used in binding tests (protein, listed as Homo sapiens)
chain: MAGGEDRGDGEPVSVVTVRVQYLEDTDPFACANFPEPRRAPTCSLDGALPLGAQIPAVHRLLGAPLKLEDCALQVSPSGYYLDTELSLEEQREMLEGFYEEISKGRKPTLILRTQLSVRVNAILEKLYSSSGPELRRSLFSLKQIFQEDKDLVPEFVHSEGLSCLIRVGAAADHNYQSYILRALGQLMLFVDGMLGVVAHSDTIQWLYTLCASLSRLVVKTALKLLLVFVEYSENNAPLFIRAVNSVASTTGAPPWANLVSILEEKNGADPELLVYTVTLINKTLAALPDQDSFYDVTDALEQQGMEALVQRHLGTAGTDVDLRTQLVLYENALKLEDGDIEEAPGAGGRRERRKPSSEEGKRSRRSLEGGGCPARAPEPGPTGPASPVGPTSSTGPALLTGPASSPVGPPSGLQASVNLFPTISVAPSADTSSERSIYKLHQTASVWAPESPPVPQSPPGQARLEARFLENVAAAETEKQVALAQGRAETLAGAMPNEAGGHPDARQLWDSPETAPAARTPQSPAPCVLLRAQRSLAPEPKEPLIPASPKAEPIWELPTRAPRLSIGDLDFSDLGEDEDQDMLNVESVEAGKDIPAPSPPLPLLSGVPPPPPLPPPPPIKGPFPPPPPLPLAAPLPHSVPDSSALPTKRKTVKLFWRELKLAGGHGVSASRFGPCATLWASLDPVSVDTARLEHLFESRAKEVLPSKKAGEGRRTMTTVLDPKRSNAINIGLTTLPPVHVIKAALLNFDEFAVSKDGIEKLLTMMPTEEERQKIEEAQLANPDIPLGPAENFLMTLASIGGLAARLQLWAFKLDYDSMEREIAEPLFDLKVGMEQLVQNATFRCILATLLAVGNFLNGSQSSGFELSYLEKVSEVKDTVRRQSLLHHLCSLVLQTRPESSDLYSEIPALTRCAKVDFEQLTENLGQLERRSRAAEESLRSLAKHELAPALRARLTHFLDQCARRVAMLRIVHRRVCNRFHAFLLYLGYTPQAAREVRIMQFCHTLREFALEYRTCRERVLQQQQKQATYRERNKTRGRMITETEKFSGVAGEAPSNPSVPVAVSSGPGRGDADSHASMKSLLTSRPEDTTHNRRSRGMVQSSSPIMPTVGPSTASPEEPPGSSLPSDTSDEIMDLLVQSVTKSSPRALAARERKRSRGNRKSLRRTLKSGLGDDLVQALGLSKGPGLEV
With B1, the “growth of yeast on tryptophan, leucine and histidine-free SD medium” value was “Growth of the yeast was noted” with profilin IIL and “did not grow” with profilin II. The “amount of His-Tag remained in the wells” value in the assay with IRAP-His was “markedly detected”.
